# Measured values published in publication PMC3944813.
# Target: NadRh from M. tuberculosis (NadR homolog) (M. tuberculosis)
# Assay: SEC
substance,measurement,value
NadRh from M. tuberculosis (NadR homolog) (natural protein),stoichiometry N,2
